Results as given in patent US20240325555A1 (LANOVA MEDICINES, published 2024).

T1: human LIV-1 (human, UniProt Q13433 29-755)
T1 sequence (looked up): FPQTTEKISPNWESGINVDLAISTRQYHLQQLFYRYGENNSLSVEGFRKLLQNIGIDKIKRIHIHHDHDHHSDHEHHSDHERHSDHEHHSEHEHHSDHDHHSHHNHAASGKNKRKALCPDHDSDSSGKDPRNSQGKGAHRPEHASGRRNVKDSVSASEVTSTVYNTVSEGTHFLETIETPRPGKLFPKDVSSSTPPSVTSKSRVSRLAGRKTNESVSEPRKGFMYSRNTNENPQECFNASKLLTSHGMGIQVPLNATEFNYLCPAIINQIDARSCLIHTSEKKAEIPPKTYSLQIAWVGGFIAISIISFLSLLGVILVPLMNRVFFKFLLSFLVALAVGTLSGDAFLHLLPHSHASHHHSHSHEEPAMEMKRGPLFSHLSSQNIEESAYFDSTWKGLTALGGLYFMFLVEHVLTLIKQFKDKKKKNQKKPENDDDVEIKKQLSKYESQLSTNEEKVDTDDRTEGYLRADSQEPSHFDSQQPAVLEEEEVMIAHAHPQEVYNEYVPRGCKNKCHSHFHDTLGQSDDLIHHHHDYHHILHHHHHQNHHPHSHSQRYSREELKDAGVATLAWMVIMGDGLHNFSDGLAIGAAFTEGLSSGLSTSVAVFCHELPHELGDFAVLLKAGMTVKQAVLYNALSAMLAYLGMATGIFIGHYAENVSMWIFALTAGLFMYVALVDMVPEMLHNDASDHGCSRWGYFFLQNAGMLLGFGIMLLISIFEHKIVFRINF

B1: 127A2B9 (antibody, V domains shown)
VH: EVQLQESGPSLVKPSQTLSLTCSVTGDSITSGYWNWIRKLPGNKLEYMGYISYSGSTYYNPSLKSRISITRDTSKNQYYLQLNSVTTEDTATYYCARIYYDYDGYFDVWGAGTTVTVSS
VL: DIVMTQAAPSVPVTPGESVSISCRSSKSLLHSNGNTFLYWFLQRPGQSPQLLIYRMSNLASGVPDRFSGSGSGTAFTLRISRVEAEDVGVYYCMQHLEYPYTFGGGTKLEIK
notes: Tested as chimeric antibody
B2: 47G1B10 (antibody, V domains shown)
VH: QVQLKQSGPGLVQPSQSLSITCTVSGFSLTTYGVHWVRQSPGKGLEWLGVIWTGGTTDYNAAFISRLSISKDNSKSQVFFKMNSLQANDTAIYYCARGPSSYWGQGTLVTVSA
VL: DIVMTQSQKFMSTSVGDRVSVTCKASQNVDTNVVWYQQKPGQSPKALIHSASYRYSGVPDRFTGSGSGTDFTLTISNVQSEDLAEYFCQQYNNYPWTFGGGTKLEIK
notes: Tested as chimeric antibody
B3: 39D10B2 (antibody, V domains shown)
VH: QVQLKQSGPGLVQPSQSLSITCTVSGFSLTTYGVHWVRQSPGKGLEWLGVIWTGGTTDYNAAFISRLSISKDNSKSQVFFKMNSLQANDTAMYYCARGPSSYWGQGTLVTVSA
VL: DIVMTQSQKFMSTSVGDRVSVTCKASQNVDTNVVWYQQKPGQSPKALIHSASYRYSGVPDRFTGSGSGTDFTLTISNVQSEDLAEYFCQQYNNYPWTFGGGTKLEIK
notes: Tested as chimeric antibody
B4: 290F10G10.p1.Z10 (antibody, V domains shown)
VH: EVQLVQSGAEVKKPGASVKVSCKASGYTFTSYWIHWVRQAPGQGLEWMGTIYPGDADTRSTQKFKDRVTVTADKSTSTVYMELSSLRSEDTAVYYCTRSLIHDDYDKYYFDYWGQGTTVTVSS
VL: DIQMTQSPSSLSASVGDRVTITCKARQDINKYIAWYQQKPGKAPKLLIYYTSILQPGVPSRFSGSGSGRDYTFTISSLQPEDIATYYCLQYDYFFTFGGGTKVEIK
B5: 290F10G10.p1.Z16 (antibody, V domains shown)
VH: EIQLVQSGAEVKKPGASVKVSCKASGYTFTSYWIHWVREAPGQGLEWIGTIYPGDADTRSTQKFKDKATVTADKSTSTVYMELSSLRSEDTAVYYCTRSLIHDDYDKYYFDYWGQGTTVTVSS
VL: DIQMTQSPSSLSASVGDRVTITCKARQDINKYIAWYQQKPGKAPKLLIYYTSILQPGVPSRFSGSGSGRDYTFTISSLQPEDIATYYCLQYDYFFTFGGGTKVEIK
B6: 290F10G10.p1.Z15 (antibody, V domains shown)
VH: EVQLVQSGAEVKKPGASVKVSCKASGYTFTSYWIHWVRQAPGQGLEWIGTIYPGDADTRSTQKFKDKATVTADKSTSTVYMELSSLRSEDTAVYYCTRSLIHDDYDKYYFDYWGQGTTVTVSS
VL: DIQMTQSPSSLSASVGDRVTITCKARQDINKYIAWYQHKPGKGPKLLIHYTSILQPGIPSRFSGSGSGRDYTFTISSLQPEDIATYYCLQYDYFFTFGGGTKVEIK
B7: 290F10G10.p1.Z17 (antibody, V domains shown)
VH: EIQLVQSGAEVKKPGASVKVSCKASGYTFTSYWIHWVREAPGQGLEWIGTIYPGDADTRSTQKFKDKATVTADKSTSTVYMELSSLRSEDTAVYYCTRSLIHDDYDKYYFDYWGQGTTVTVSS
VL: DIQMTQSPSSLSASVGDRVTITCKARQDINKYIAWYQQKPGKAPKLLIHYTSILQPGIPSRFSGSGSGRDYTFTISSLQPEDIATYYCLQYDYFFTFGGGTKVEIK
B8: 290F10G10.p1.Z11 (antibody, V domains shown)
VH: EVQLVQSGAEVKKPGASVKVSCKASGYTFTSYWIHWVRQAPGQGLEWMGTIYPGDADTRSTQKFKDRVTVTADKSTSTVYMELSSLRSEDTAVYYCTRSLIHDDYDKYYFDYWGQGTTVTVSS
VL: DIQMTQSPSSLSASVGDRVTITCKARQDINKYIAWYQQKPGKAPKLLIHYTSILQPGIPSRFSGSGSGRDYTFTISSLQPEDIATYYCLQYDYFFTFGGGTKVEIK
B9: 290F10G10.p1.Z14 (antibody, V domains shown)
VH: EVQLVQSGAEVKKPGASVKVSCKASGYTFTSYWIHWVRQAPGQGLEWIGTIYPGDADTRSTQKFKDKATVTADKSTSTVYMELSSLRSEDTAVYYCTRSLIHDDYDKYYFDYWGQGTTVTVSS
VL: DIQMTQSPSSLSASVGDRVTITCKARQDINKYIAWYQQKPGKAPKLLIHYTSILQPGIPSRFSGSGSGRDYTFTISSLQPEDIATYYCLQYDYFFTFGGGTKVEIK
B10: 290F10G10.p1.Z12 (antibody, V domains shown)
VH: EVQLVQSGAEVKKPGASVKVSCKASGYTFTSYWIHWVRQAPGQGLEWMGTIYPGDADTRSTQKFKDRVTVTADKSTSTVYMELSSLRSEDTAVYYCTRSLIHDDYDKYYFDYWGQGTTVTVSS
VL: DIQMTQSPSSLSASVGDRVTITCKARQDINKYIAWYQHKPGKGPKLLIHYTSILQPGIPSRFSGSGSGRDYTFTISSLQPEDIATYYCLQYDYFFTFGGGTKVEIK
B11: 290F10G10.p1.Z18 (antibody, V domains shown)
VH: EIQLVQSGAEVKKPGASVKVSCKASGYTFTSYWIHWVREAPGQGLEWIGTIYPGDADTRSTQKFKDKATVTADKSTSTVYMELSSLRSEDTAVYYCTRSLIHDDYDKYYFDYWGQGTTVTVSS
VL: DIQMTQSPSSLSASVGDRVTITCKARQDINKYIAWYQHKPGKGPKLLIHYTSILQPGIPSRFSGSGSGRDYTFTISSLQPEDIATYYCLQYDYFFTFGGGTKVEIK
B12: 290F10G10.p1.Z13 (antibody, V domains shown)
VH: EVQLVQSGAEVKKPGASVKVSCKASGYTFTSYWIHWVRQAPGQGLEWIGTIYPGDADTRSTQKFKDKATVTADKSTSTVYMELSSLRSEDTAVYYCTRSLIHDDYDKYYFDYWGQGTTVTVSS
VL: DIQMTQSPSSLSASVGDRVTITCKARQDINKYIAWYQQKPGKAPKLLIYYTSILQPGVPSRFSGSGSGRDYTFTISSLQPEDIATYYCLQYDYFFTFGGGTKVEIK

What was measured:
human LIV-1 [1] = biological target: T1, human LIV-1; assay: cell-based or functional assay
human LIV-1 [2] = biological target: T1, human LIV-1; assay: cell-based or functional assay; remark: listed apart in the source
human LIV-1 [3] = biological target: T1, human LIV-1; assay: FACS, HEK293/H_LIV-1 cells
Experimental: (§1) In this example, cell based binding of chimeric Abs on human and cyno LIV-1 over-expressing HEK 293 cells were assessed using flow cytometry.
(§2) Briefly, cells were incubated with chimeric Abs (from 100 nM, 5 folds dilution, 8 points). After incubation at 4° C. for 60 minutes, the cells were washed with 2% FBS/PBS buffer twice, then stained with fluorescent conjugated secondary antibody at 4° C. for 30 minutes. After that the cells were washed twice and resuspended in 80 μL of 2% FBS/PBS buffer. Fluorescent signal of binding was detected using Agilent. The EC50 was calculated using the GraphPad Software (LaJolla, CA).

cynomolgus LIV-1 [4] = biological target: T2, cynomolgus LIV-1 (cynomolgus, UniProt A0A2K5WH46 30-741); assay: FACS, HEK293/Cyno_LIV-1 cells
Experimental: as §1, §2

human LIV-1 [5] = biological target: T1, human LIV-1; assay: cell-based or functional assay; remark: listed apart in the source
cynomolgus LIV-1 [6] = biological target: T2, cynomolgus LIV-1; assay: FACS, cyno LIV-1 cells
Target sequence in this assay (A0A2K5WH46 entry or part of it): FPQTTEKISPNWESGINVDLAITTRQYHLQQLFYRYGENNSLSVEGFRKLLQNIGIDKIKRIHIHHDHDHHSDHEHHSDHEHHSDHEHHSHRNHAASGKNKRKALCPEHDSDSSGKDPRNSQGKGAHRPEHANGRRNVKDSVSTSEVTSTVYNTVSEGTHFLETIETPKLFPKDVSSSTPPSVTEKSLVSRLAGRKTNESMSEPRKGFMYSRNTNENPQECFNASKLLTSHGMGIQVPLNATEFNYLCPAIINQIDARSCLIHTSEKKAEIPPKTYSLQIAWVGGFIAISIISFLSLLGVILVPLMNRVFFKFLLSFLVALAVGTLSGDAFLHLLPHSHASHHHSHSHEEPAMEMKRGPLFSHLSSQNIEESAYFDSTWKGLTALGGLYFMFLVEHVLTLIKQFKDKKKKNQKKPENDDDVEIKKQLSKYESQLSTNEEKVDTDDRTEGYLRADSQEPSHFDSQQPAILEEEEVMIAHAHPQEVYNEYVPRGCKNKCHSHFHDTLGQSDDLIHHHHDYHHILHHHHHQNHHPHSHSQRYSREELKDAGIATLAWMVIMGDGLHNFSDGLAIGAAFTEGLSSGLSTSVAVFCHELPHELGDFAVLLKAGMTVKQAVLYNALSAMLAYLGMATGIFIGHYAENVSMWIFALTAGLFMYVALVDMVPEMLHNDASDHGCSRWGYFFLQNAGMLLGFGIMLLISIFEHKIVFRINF

human LIV-1 [7] = biological target: T1, human LIV-1; assay: FACS, human LIV-1 cells
Experimental: In this example, cell based binding of humanized antibodies (hu Abs) on human LIV-1-expressing cells were assessed using flow cytometry.
Cell based binding of hu-Abs on human LIV-1 expressing cells were assessed using flow cytometry. Briefly, the HEK293/H_LIV-1 cells were incubated with hu-Abs (from 100 nM, 6 folds dilution, 8 points). After incubation at 4° C. for 60 minutes, the cells were washed with FACS buffer twice, then stained with fluorescent conjugated secondary antibody at 4° C. for 30 minutes. After that the cells were washed twice and analyzed by flow cytometry.

Binder	Internalization EC50 (human LIV-1 [1])	Internalization Top (RFU) (human LIV-1 [1])	Cell viability(%) (human LIV-1 [2])	Cytotoxicity IC50 (human LIV-1 [2])	EC50 (human LIV-1 [3])	Top (MFI) (human LIV-1 [3])	EC50 (cynomolgus LIV-1 [4])	Top (MFI) (cynomolgus LIV-1 [4])	ADCC reporter EC50 (human LIV-1 [5])	ADCC reporter Top (RFU) (human LIV-1 [5])	EC50 (cynomolgus LIV-1 [6])	Top (MFI) (cynomolgus LIV-1 [6])	EC50 (human LIV-1 [7])	Top (MFI) (human LIV-1 [7])
B1	51.8 nM	558000 RFU	17.8%	2.25 nM	4.03 nM	34600 MFI	3.92 nM	21700 MFI						
B2	10.1 nM	178000 RFU	17.7%	1.53 nM	0.37 nM	60900 MFI	0.3 nM	36700 MFI	0.3 nM	191000 RFU				
B3	16.9 nM	171000 RFU	16.2%	1.54 nM	0.24 nM	61800 MFI	0.21 nM	37300 MFI	0.2 nM	151000 RFU				
B4											0.69 nM	6740 MFI	0.49 nM	7290 MFI
B5											0.61 nM	6920 MFI	0.43 nM	7440 MFI
B6											0.36 nM	7210 MFI	0.27 nM	7550 MFI
B7											0.51 nM	6820 MFI	0.39 nM	7520 MFI
B8											0.32 nM	7410 MFI	0.25 nM	7820 MFI
B9											0.48 nM	7220 MFI	0.3 nM	7410 MFI
B10											0.38 nM	7510 MFI	0.26 nM	7920 MFI
B11											0.56 nM	7040 MFI	0.36 nM	7430 MFI
B12											0.46 nM	7180 MFI	0.32 nM	7630 MFI
